Measurements reported in US20180030151A1.
Read-outs that look alike come from different tables or passages of the source.

Key:
[1] = molecular target: recombinant human TFPI (tissue factor pathway inhibitor) (human) (UniProt P10646)
[2] = molecular target: recombinant human TFPI (tissue factor pathway inhibitor) (human) (UniProt P10646); assay: cell-based or functional assay
[3] = molecular target: recombinant human TFPI (tissue factor pathway inhibitor) (human) (UniProt P10646); assay: cell-based or functional assay; remark: listed apart in the source
[4] = molecular target: recombinant human TFPI (tissue factor pathway inhibitor) (human) (UniProt P10646); assay: cell-based or functional assay; remark: listed apart in the source
[5] = molecular target: recombinant human TFPI (tissue factor pathway inhibitor) (human) (UniProt P10646); assay: cell-based or functional assay; remark: listed apart in the source
[6] = molecular target: recombinant human TFPI (tissue factor pathway inhibitor) (human) (UniProt P10646); assay: cell-based or functional assay; remark: listed apart in the source
[7] = molecular target: recombinant human TFPI (tissue factor pathway inhibitor) (human) (UniProt P10646); assay: cell-based or functional assay; remark: listed apart in the source
[8] = molecular target: recombinant human TFPI (tissue factor pathway inhibitor) (human) (UniProt P10646); assay: cell-based or functional assay; remark: listed apart in the source

B1: mAb2021 (anti-TFPI Ab, Novo Nordisk) (antibody, from another filing, V domains shown)
VH: EVQLVESGGGLVKPGGSLRLSCAASGFTFSNYAMSWVRQTPEKRLEWVATISRSGSYSYFPDSVQGRFTISRDNAKNSLYLQMNSLRAEDTAVYYCARLGGYDEGDAMDSWGQGTTVTVSS
VL: DIVMTQTPLSLSVTPGQPASISCKSSQSLLESDGKTYLNWYLQKPGQSPQLLIYLVSILDSGVPDRFSGSGSGTDFTLKISRVEAEDVGVYYCLQATHFPQTFGGGTKVEIKR
What does the source list for B1?
FXa assay OD, 20 nM Ab, 10 nM TFPI [1]: 0.724; % of Normalized, TF/FVIIa/FX complex assay (FX 5 nM), Ab 1.56 nM [2]: 5.3%; % of Normalized, TF/FVIIa/FX complex assay (FX 5 nM), Ab 3.13 nM [2]: 5.7%; % of Normalized, TF/FVIIa/FX complex assay (FX 5 nM), Ab 6.25 nM [2]: 6.1%; % of Normalized, TF/FVIIa/FX complex assay (FX 5 nM), Ab 12.5 nM [2]: 10.1%; % of Normalized, TF/FVIIa/FX complex assay (FX 5 nM), Ab 25 nM [2]: 42.5%; % of Normalized, TF/FVIIa/FX complex assay (FX 5 nM), Ab 50 nM [2]: 90.6%; % of Normalized, TF/FVIIa/FX complex assay (FX 5 nM), Ab 100 nM [2]: 99.4%; % of Normalized, TF/FVIIa/FX complex assay, Ab 1.56 nM [2]: 13.6%; % of Normalized, TF/FVIIa/FX complex assay, Ab 3.13 nM [2]: 15.7%; % of Normalized, TF/FVIIa/FX complex assay, Ab 6.25 nM [2]: 18.2%; % of Normalized, TF/FVIIa/FX complex assay, Ab 12.5 nM [2]: 23.7%; % of Normalized, TF/FVIIa/FX complex assay, Ab 25 nM [2]: 100%; % of Normalized, TF/FVIIa/FX complex assay, Ab 50 nM [2]: 101%; % of Normalized, TF/FVIIa/FX complex assay, Ab 100 nM [2]: 102%; A405, TF/FVIIa/FX complex assay (FX 5 nM), Ab 1.56 nM [2]: 0.043; A405, TF/FVIIa/FX complex assay (FX 5 nM), Ab 3.13 nM [2]: 0.047; A405, TF/FVIIa/FX complex assay (FX 5 nM), Ab 6.25 nM [2]: 0.05; A405, TF/FVIIa/FX complex assay (FX 5 nM), Ab 12.5 nM [2]: 0.082; A405, TF/FVIIa/FX complex assay (FX 5 nM), Ab 25 nM [2]: 0.344; A405, TF/FVIIa/FX complex assay (FX 5 nM), Ab 50 nM [2]: 0.733; A405, TF/FVIIa/FX complex assay (FX 5 nM), Ab 100 nM [2]: 0.805; A405, TF/FVIIa/FX complex assay, Ab 1.56 nM [2]: 0.125; A405, TF/FVIIa/FX complex assay, Ab 3.13 nM [2]: 0.145; A405, TF/FVIIa/FX complex assay, Ab 6.25 nM [2]: 0.168; A405, TF/FVIIa/FX complex assay, Ab 12.5 nM [2]: 0.218; A405, TF/FVIIa/FX complex assay, Ab 25 nM [2]: 0.918; A405, TF/FVIIa/FX complex assay, Ab 50 nM [2]: 0.929; A405, TF/FVIIa/FX complex assay, Ab 100 nM [2]: 0.937; A405, TF/FVIIa/FX complex assay, Ab 1.56 nM [3]: 0.151; A405, TF/FVIIa/FX complex assay, Ab 3.13 nM [3]: 0.171; A405, TF/FVIIa/FX complex assay, Ab 6.25 nM [3]: 0.18; A405, TF/FVIIa/FX complex assay, Ab 12.5 nM [3]: 0.233; A405, TF/FVIIa/FX complex assay, Ab 25 nM [3]: 0.955; A405, TF/FVIIa/FX complex assay, Ab 50 nM [3]: 0.951; A405, TF/FVIIa/FX complex assay, Ab 100 nM [3]: 0.966; % of Normalized, TF/FVIIa/FX complex assay, Ab 1.56 nM [4]: 15.8%; % of Normalized, TF/FVIIa/FX complex assay, Ab 3.13 nM [4]: 17.9%; % of Normalized, TF/FVIIa/FX complex assay, Ab 6.25 nM [4]: 18.8%; % of Normalized, TF/FVIIa/FX complex assay, Ab 12.5 nM [4]: 24.4%; % of Normalized, TF/FVIIa/FX complex assay, Ab 25 nM [4]: 100%; % of Normalized, TF/FVIIa/FX complex assay, Ab 50 nM [4]: 99.6%; % of Normalized, TF/FVIIa/FX complex assay, Ab 100 nM [4]: 101%; A405, TF/FVIIa/FX complex assay, Ab 1.56 nM [5]: 0.137; A405, TF/FVIIa/FX complex assay, Ab 3.13 nM [5]: 0.143; A405, TF/FVIIa/FX complex assay, Ab 6.25 nM [5]: 0.156; A405, TF/FVIIa/FX complex assay, Ab 12.5 nM [5]: 0.241; A405, TF/FVIIa/FX complex assay, Ab 25 nM [5]: 0.932; A405, TF/FVIIa/FX complex assay, Ab 50 nM [5]: 0.953; A405, TF/FVIIa/FX complex assay, Ab 100 nM [5]: 0.952; % of Normalized, TF/FVIIa/FX complex assay, Ab 1.56 nM [6]: 15%; % of Normalized, TF/FVIIa/FX complex assay, Ab 3.13 nM [6]: 15.6%; % of Normalized, TF/FVIIa/FX complex assay, Ab 6.25 nM [6]: 17%; % of Normalized, TF/FVIIa/FX complex assay, Ab 12.5 nM [6]: 26.3%; % of Normalized, TF/FVIIa/FX complex assay, Ab 25 nM [6]: 102%; % of Normalized, TF/FVIIa/FX complex assay, Ab 50 nM [6]: 104%; % of Normalized, TF/FVIIa/FX complex assay, Ab 100 nM [6]: 104%; A405, TF/FVIIa/FX complex assay, Ab 1.56 nM [7]: 0.044; A405, TF/FVIIa/FX complex assay, Ab 3.13 nM [7]: 0.046; A405, TF/FVIIa/FX complex assay, Ab 6.25 nM [7]: 0.062; A405, TF/FVIIa/FX complex assay, Ab 12.5 nM [7]: 0.105; A405, TF/FVIIa/FX complex assay, Ab 25 nM [7]: 0.462; A405, TF/FVIIa/FX complex assay, Ab 50 nM [7]: 0.73; A405, TF/FVIIa/FX complex assay, Ab 100 nM [7]: 0.852; % of Normalized, TF/FVIIa/FX complex assay, Ab 1.56 nM [8]: 5.2%; % of Normalized, TF/FVIIa/FX complex assay, Ab 3.13 nM [8]: 5.4%; % of Normalized, TF/FVIIa/FX complex assay, Ab 6.25 nM [8]: 7.3%; % of Normalized, TF/FVIIa/FX complex assay, Ab 12.5 nM [8]: 12.4%; % of Normalized, TF/FVIIa/FX complex assay, Ab 25 nM [8]: 54.4%; % of Normalized, TF/FVIIa/FX complex assay, Ab 50 nM [8]: 86.1%; % of Normalized, TF/FVIIa/FX complex assay, Ab 100 nM [8]: 100%
